Measurements from patent US20120129776A1.

Target: MrgX1 (Mas-related G-protein coupled receptor member X1) (UniProt Q96LB2)
Assay: cell-based or functional assay

MrgX1 (Mas-related G-protein coupled receptor member X1), sequence (Q96LB2 whole entry): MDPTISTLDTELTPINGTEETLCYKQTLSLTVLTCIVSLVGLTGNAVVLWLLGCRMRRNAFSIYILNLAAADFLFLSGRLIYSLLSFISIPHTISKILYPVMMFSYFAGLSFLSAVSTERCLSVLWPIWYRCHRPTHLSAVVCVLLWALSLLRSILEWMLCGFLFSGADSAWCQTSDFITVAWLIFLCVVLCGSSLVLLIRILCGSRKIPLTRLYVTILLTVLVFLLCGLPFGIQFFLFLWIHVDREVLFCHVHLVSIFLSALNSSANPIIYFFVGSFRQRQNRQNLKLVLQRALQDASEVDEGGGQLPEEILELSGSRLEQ

In the case of “BAM22 (bovine adrenal medulla peptide 22) (from UniProt P01211 206-227)”, the EC50 of calcium flux dose response is reported as greater than 50 nM.
